Results as given in patent publication US20230399408A1 (AB THERAPEUTICS, published 2023).

Key:
[1] = biological target: EGFR mutant C797S on BaF3 cells (UniProt P00533); assay: flow cytometry competition on EGFR mutant C797S-BaF3 cells, streptavidin-PE; blocked ligand biotinylated EGF; fit value of a flat control curve
[2] = biological target: EGFR on NCI-H1975 cells (human) (UniProt P00533); assay: flow cytometry competition on H1975.HGF cells, streptavidin-PE; blocked ligand biotinylated EGF; fit value of a control curve that rises instead of falling
[3] = biological target: EGFR mutant C797S on BaF3 cells (UniProt P00533); assay: flow cytometry on EGFR mutant C797S-BaF3 cells, goat anti-human Fc-FITC; fit value of a flat control curve; the drawn table is identical to that of FIG. 23C
[4] = biological target: EGFR on NCI-H1975 cells (human) (UniProt P00533); assay: flow cytometry on H1975.HGF cells, goat anti-human Fc-FITC; fit value of a flat control curve; the drawn table is identical to that of FIG. 23B
[5] = biological target: cMET on NCI-H1975 cells (human) (UniProt P08581); assay: flow cytometry competition on H1975.HGF cells, streptavidin-PE; ligand biotinylated HGF; fit value of a nearly flat control curve
Chain of cMET on NCI-H1975 cells (human) (P08581 25-1390): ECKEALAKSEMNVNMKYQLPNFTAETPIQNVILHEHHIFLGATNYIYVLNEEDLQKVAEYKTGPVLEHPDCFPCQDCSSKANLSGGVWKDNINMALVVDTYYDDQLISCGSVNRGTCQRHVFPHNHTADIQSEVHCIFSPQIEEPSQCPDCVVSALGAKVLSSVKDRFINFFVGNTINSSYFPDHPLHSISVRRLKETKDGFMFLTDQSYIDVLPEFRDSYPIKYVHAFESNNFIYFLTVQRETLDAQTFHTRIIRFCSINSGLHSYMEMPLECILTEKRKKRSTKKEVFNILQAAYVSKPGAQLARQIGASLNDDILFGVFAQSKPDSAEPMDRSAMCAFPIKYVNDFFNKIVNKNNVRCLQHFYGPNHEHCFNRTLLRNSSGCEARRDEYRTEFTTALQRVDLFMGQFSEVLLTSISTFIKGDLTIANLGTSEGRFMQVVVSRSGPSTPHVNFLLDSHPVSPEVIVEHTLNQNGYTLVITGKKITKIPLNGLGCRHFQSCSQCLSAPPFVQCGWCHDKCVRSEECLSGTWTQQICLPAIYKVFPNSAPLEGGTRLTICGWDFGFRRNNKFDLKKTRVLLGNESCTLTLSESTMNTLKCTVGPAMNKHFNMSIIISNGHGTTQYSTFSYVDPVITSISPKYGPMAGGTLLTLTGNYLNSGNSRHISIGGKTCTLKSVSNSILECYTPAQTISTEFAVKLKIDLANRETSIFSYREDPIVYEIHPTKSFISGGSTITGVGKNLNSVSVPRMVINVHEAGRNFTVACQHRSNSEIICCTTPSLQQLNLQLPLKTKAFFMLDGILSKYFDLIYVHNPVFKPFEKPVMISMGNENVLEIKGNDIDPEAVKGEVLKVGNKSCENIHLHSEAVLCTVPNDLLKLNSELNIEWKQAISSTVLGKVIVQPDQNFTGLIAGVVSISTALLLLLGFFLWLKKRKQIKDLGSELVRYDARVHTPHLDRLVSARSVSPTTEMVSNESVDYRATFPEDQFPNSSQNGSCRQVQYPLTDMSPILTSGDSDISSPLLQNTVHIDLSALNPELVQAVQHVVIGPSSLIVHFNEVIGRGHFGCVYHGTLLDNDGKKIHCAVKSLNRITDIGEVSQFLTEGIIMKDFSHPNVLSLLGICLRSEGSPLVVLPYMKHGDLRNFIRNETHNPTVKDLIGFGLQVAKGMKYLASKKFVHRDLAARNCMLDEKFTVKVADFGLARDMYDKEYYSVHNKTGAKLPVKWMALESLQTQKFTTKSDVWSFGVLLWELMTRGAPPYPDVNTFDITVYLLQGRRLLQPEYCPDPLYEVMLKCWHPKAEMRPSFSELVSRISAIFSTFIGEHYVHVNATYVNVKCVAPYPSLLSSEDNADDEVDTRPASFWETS

[6] = biological target: cMET on NCI-H1975 cells (human) (UniProt P08581); assay: flow cytometry competition on H1975 cells, streptavidin-PE; blocked ligand biotinylated HGF; fit value of a nearly flat control curve (about 6500 to 6200)
[7] = biological target: EGFR on NCI-H1975 cells (human) (UniProt P00533); assay: flow cytometry on H1975 cells, dilutions 2.04e-4 to 400 nM, goat anti-human Fc-FITC; fit value of a flat control curve, beyond the tested range
[8] = biological target: EGFR mutant C797S on BaF3 cells (UniProt P00533); assay: flow cytometry on EGFR mutant C797S-BaF3 cells, goat anti-human Fc-FITC
[9] = biological target: c-MET-His tag protein (human) (UniProt P08581); assay: titration ELISA, c-MET-His coated
Chain of c-MET-His tag protein (human) (P08581 25-932 limits assumed): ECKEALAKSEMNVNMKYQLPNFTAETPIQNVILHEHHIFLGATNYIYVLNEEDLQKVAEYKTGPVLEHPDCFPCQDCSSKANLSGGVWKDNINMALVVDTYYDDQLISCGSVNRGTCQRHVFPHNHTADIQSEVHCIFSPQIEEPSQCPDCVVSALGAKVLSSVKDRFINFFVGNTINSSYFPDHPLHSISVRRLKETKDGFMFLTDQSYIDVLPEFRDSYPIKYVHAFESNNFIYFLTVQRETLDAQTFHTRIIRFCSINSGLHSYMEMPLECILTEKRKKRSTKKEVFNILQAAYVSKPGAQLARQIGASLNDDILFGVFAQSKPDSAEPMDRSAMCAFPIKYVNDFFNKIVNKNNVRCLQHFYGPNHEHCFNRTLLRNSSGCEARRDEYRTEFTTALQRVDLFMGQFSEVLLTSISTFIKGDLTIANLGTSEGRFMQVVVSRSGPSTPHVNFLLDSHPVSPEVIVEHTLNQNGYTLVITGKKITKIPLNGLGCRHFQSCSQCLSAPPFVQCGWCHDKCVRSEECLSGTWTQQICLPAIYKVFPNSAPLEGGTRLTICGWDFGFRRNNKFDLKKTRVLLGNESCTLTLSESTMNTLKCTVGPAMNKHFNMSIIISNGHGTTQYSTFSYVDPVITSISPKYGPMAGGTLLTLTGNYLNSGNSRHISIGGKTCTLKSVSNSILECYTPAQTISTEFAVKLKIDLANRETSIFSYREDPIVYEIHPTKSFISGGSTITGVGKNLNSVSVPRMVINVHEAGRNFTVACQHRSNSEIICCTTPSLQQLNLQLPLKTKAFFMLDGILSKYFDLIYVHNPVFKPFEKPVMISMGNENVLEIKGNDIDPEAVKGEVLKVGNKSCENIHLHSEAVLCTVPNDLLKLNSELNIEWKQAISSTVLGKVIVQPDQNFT

[10] = biological target: EGFR on NCI-H1975 cells (human) (UniProt P00533); assay: flow cytometry on H1975 cells, dilutions 2.04e-4 to 400 nM, goat anti-human Fc-FITC; whole-cell binding, the cells also carry cMET
EGFR = EGFR (UniProt P00533); assay: separate experiment, method not restated (BLI in this example), EGFR binding
cMET [11] = biological target: cMET (UniProt P08581); assay: separate experiment, method not restated (BLI in this example), cMET binding
Chain of cMET (P08581 25-932): as the sequence (P08581 25-932 limits assumed) above

cMET [12] = biological target: cMET (UniProt P08581); assay: BLI (Probelife)
human cMET = biological target: T1, human cMET (human, UniProt P08581 25-932); assay: binding ELISA, plate coated with human cMET at 1 ug/mL, clone at 10 ug/mL, biotinylated anti-c-Myc 9E-10 and streptavidin detection
T1 construct: Coated antigen of the cross-reactivity ELISA; also called human antigen; anti-Hu
T1 sequence (P08581 25-932): as the sequence (P08581 25-932 limits assumed) above
Description: A high binding ELISA plate was coated with 1 μg/mL (diluted in 1×PBS) human or monkey antigens and kept at 4° C. overnight. On the next day, the plate was blocked with a blocking buffer (4% non-fat milk in 1×PBS) for 1 hour at 37° C. After blocking, the plate was washed three times with PBST. The antibody samples to be tested were diluted in PBS and then added to the corresponding wells (10 μg/mL). The plate was incubated at 37° C. at RT for 1 hour. After the incubation, the plate was washed three times with the PBST. Next, a secondary antibody (biotinylated anti-c-Myc antibody 9E-10, diluted at 1:500) was added to the wells and the plate was incubated at 37° C. at RT for 1 hour. The plate was then washed three times with PBST. Afterwards, streptavidin-RP, diluted at 1:1000, was added to each well and then the plate was incubated at 37° C. at RT for 1 hour. After the incubation, the plate was washed four times with PBST. After washing, the plate was developed by adding the Amplex reagent substrate and then the luminescent signal was measured at 530 nm and 590 nm in a SpectraMax plate reader.

c-MET-His tag protein = biological target: T2, c-MET-His tag protein (human, UniProt P08581 25-932); assay: BLI (Probelife Gator), cMET-His on HIS probe saturated with 1H1-cMET-VHH-Fc, second antibody at 5 ug/ml
T2 construct: also called cMET-HIS tagged; not shown: His tag
T2 sequence (P08581 25-932 limits assumed): as above
Description: Briefly, a baseline was established using HIS probes in Quantitation (Q) buffer (a phosphate buffered saline solution with bovine serum albumin to decrease non-specific and background signal). The antigen (cMET-HIS tagged) to the HIS probe was added in 5 μg/ml cMET solution in Q buffer. HIS probes in Q buffer were used to return to the baseline. […] Finally, the secondary antibody was associated through HIS Probes in 5 μg/ml of antibody diluted in Q buffer.

Neg.control (antibody)
EC50 [1]: 0.0262 nM
EC50 [2]: 26.4 nM
EC50 [3]: 0.0262 nM
EC50 [4]: 26.4 nM
EC50 [5]: 1.08 nM
EC50 [6]: 0.112 nM
EC50 [7]: 11100 nM

JNJ372 analog (bispecific antibody)
EC50 (read off the curve) [8]: 3 nM
EC50 [9]: 4.89 ng/mL
EC50 [10]: 0.46 nM
Kd (EGFR): 0.689 nM
Kd (cMET [11]): 0.432 nM
Kd (cMET [12]): 0.405 nM

B1: 1A12 (VHH)
VHH: QVQLVESGGGLVQPGGSLRLSCAASGFTFNSYWMYWVRLAPGKGIEWVSATDTRGQNTYYTDSVKGRFTISRDNAKNMVSLQMNNLKSEDTAVYYCALGNRWGTFPNRGPGTLVTVSS
notes: it is not the VHH-Fc fusion m11; also called cMET-1A12; clone 1A12
binding result (human cMET): binds

B2: cMET-1A12 VHH-Fc (Fc fusion)
chain: QVQLVESGGGLVQPGGSLRLSCAASGFTFNSYWMYWVRLAPGKGIEWVSATDTRGQNTYYTDSVKGRFTISRDNAKNMVSLQMNNLKSEDTAVYYCALGNRWGTFPNRGPGTLVTVSS
notes: not shown: hinge and Fc of the VHH-Fc
binding result (c-MET-His tag protein): binds
